B1: RSV F peptide No. 1 (F5-13) (peptide)
peptide: TLLLWVLLL
modifications: not checked
B2: RSV F peptide No. 17 (F417-425) (peptide)
peptide: KIMTSKTDV
modifications: not checked
B3: RSV F peptide No. 13 (F214-222) (peptide)
peptide: KVLDLKNYI
modifications: not checked
B4: RSV F peptide No. 6 (F163-171) (peptide)
peptide: FLLGVGSAI
modifications: not checked
B5: RSV F peptide No. 9 (F194-202) (peptide)
peptide: LLSTNKAVV
modifications: not checked
B6: RSV F peptide No. 24 (F561-569) (peptide)
peptide: LLSLIAVGL
modifications: not checked
B7: RSV F peptide No. 3 (F33-41) (peptide)
peptide: AITTILAAV
modifications: not checked
B8: RSV F peptide No. 18 (F474-482) (peptide)
peptide: SVGNTLYYV
modifications: not checked
B9: RSV F peptide No. 23 (F559-567) (peptide)
peptide: VILLSLIAV
modifications: not checked
B10: RSV F peptide No. 14 (F273-281) (peptide)
peptide: YMLTNSELL
modifications: not checked
B11: RSV F peptide No. 15 (F295-303) (peptide)
peptide: KLMSNNVQI
modifications: not checked
B12: RSV F peptide No. 16 (F296-304) (peptide)
peptide: LMSNNVQIV
modifications: not checked
B13: RSV F peptide No. 25 (F563-571) (peptide)
peptide: SLIAVGLLL
modifications: not checked
B14: RSV F peptide No. 8 (F193-201) (peptide)
peptide: ALLSTNKAV
modifications: not checked

The binders below were run against HLA-A*0201 molecule on human T2 cells (human) (assay: not given).

Binder	MFI above baseline (% higher than the baseline)
B1	10

These binders were tested against HLA-A*0201 molecule on human T2 cells (human) (assay: T2-based binding assay, flow cytometry with FITC anti-HLA-A2).

Binder	MFI ratio (ratio to the negative control)
B2	0.91

What follows are binders tested against HLA-A*0201 molecule on human T2 cells (human) (assay: T2 cell-stabilization assay, flow cytometry with FITC anti-HLA-A2, peptide 50 µg/mL).

Binder	MFI above baseline (% higher than the baseline)	MFI ratio (fold of the negative control)
B3	10	
B4	10	
B5		1.5
B6		1.5
B7		1.5
B8	10	
B9		1.5
B10		1.5
B11		1.5
B12		1.5
B13	10	
B14	10	
